Assay results reported in patent US20250152746A1, “BASE EDITING OF ANGPTL3 AND METHODS OF USING SAME FOR TREATMENT OF DISEASE” (Verve Therapeutics, Inc., priority 2020, published 2025).
In the oligonucleotide strings, read from the 5' end, every base follows the letter of its sugar. An asterisk marks phosphorothioate; unmarked linkages are phosphodiester. Other units and linkages are bracketed, terminal groups are in braces. A string of capitals states the bases alone. m = 2'-O-methyl; r = 2'-OH (RNA)

What was measured:
[1] = tested on: PCSK9 gene; test: PCSK9 gRNA/SpCas9 editing in primary human hepatocytes (Tables 2, 4); format: cell-based; settings: SpCas9 mRNA MS002 1:1 by weight; for Human Primary Hepatocyte Editing % 100: 100 ng/RNA/mL; for Human Primary Hepatocyte Editing % 500: 500 ng/RNA/mL; for Human Primary Hepatocyte Editing % 2500: 2500 ng/RNA/mL
Procedure, shortened: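 Editing at the PCSK9 site quantified by NGS of PCR amplicons from genomic DNA. Input: SpCas9 mRNA with gRNA, 1:1 by weight, transfected into primary human hepatocytes at 2500, 500 or 100 ng RNA/mL (tracr-modified guides at 2500, 1250, 500, 250 ng/mL).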

[2] = tested on: PCSK9 gene; test: PCSK9 gRNA/SpCas9 editing in primary cynomolgus hepatocytes (Tables 2, 22); format: cell-based, cynomolgus monkey; settings: SpCas9 mRNA MS002 1:1 by weight; for Cyno Primary Hepatocyte Editing % 100: 100 ng/RNA/mL; for Cyno Primary Hepatocyte Editing % 500: 500 ng/RNA/mL; for Cyno Primary Hepatocyte Editing % 2500: 2500 ng/RNA/mL

| Molecule | Human Primary Hepatocyte Editing % 100 [1] | Human Primary Hepatocyte Editing % 500 [1] | Human Primary Hepatocyte Editing % 2500 [1] | Cyno Primary Hepatocyte Editing % 100 [2] | Cyno Primary Hepatocyte Editing % 500 [2] | Cyno Primary Hepatocyte Editing % 2500 [2] |
| --- | --- | --- | --- | --- | --- | --- |
| GA202: PCSK9 gRNA; protospacer AAGCGGGTCCCGTCCTCCTC (SEQ ID NO: 196) (nucleic acid, sugars from the 5' end m3 r94 m3, linkages s3 o93 s3 (s phosphorothioate, o phosphodiester), T or U not given here) guide: AAGCGGGUCCCGUCCUCCUCGUUUUAGAGCUAGAAAUAGCAAGUUAAAAUAAGGCUAGUCCGUUAUCAACUUGAAAAAGUGGCACCGAGUCGGUGCUUUU | 2.54% | 10.75% | 34.75% | 1.54% | 8.91% | 31.13% |
| GA203: PCSK9 gRNA; protospacer TGACCCTGCCCTCGATTTCC (SEQ ID NO: 197) (nucleic acid, sugars from the 5' end m3 r94 m3, linkages s3 o93 s3 (s phosphorothioate, o phosphodiester), T or U not given here) guide: UGACCCUGCCCUCGAUUUCCGUUUUAGAGCUAGAAAUAGCAAGUUAAAAUAAGGCUAGUCCGUUAUCAACUUGAAAAAGUGGCACCGAGUCGGUGCUUUU | 2.57% | 12.76% | 37.02% | 3.66% | 10.49% | 32.85% |
| GA210: PCSK9 gRNA; protospacer CTGCGCGTGCTCAACTGCCA (SEQ ID NO: 204) (nucleic acid, sugars from the 5' end m3 r94 m3, linkages s3 o93 s3 (s phosphorothioate, o phosphodiester), T or U not given here) guide: CUGCGCGUGCUCAACUGCCAGUUUUAGAGCUAGAAAUAGCAAGUUAAAAUAAGGCUAGUCCGUUAUCAACUUGAAAAAGUGGCACCGAGUCGGUGCUUUU | 0.04% | 5.86% | 14.3% | 4.5% | 19.72% | 54.88% |
| GA207: PCSK9 gRNA; protospacer GGAAATCGAGGGCAGGGTCA (SEQ ID NO: 201) (nucleic acid, sugars from the 5' end m3 r94 m3, linkages s3 o93 s3 (s phosphorothioate, o phosphodiester), T or U not given here) guide: GGAAAUCGAGGGCAGGGUCAGUUUUAGAGCUAGAAAUAGCAAGUUAAAAUAAGGCUAGUCCGUUAUCAACUUGAAAAAGUGGCACCGAGUCGGUGCUUUU | 0.84% | 3.46% | 20.79% | 1.05% | 2.72% | 19.16% |
| GA209: PCSK9 gRNA; protospacer CTTGGCAGTTGAGCACGCGC (SEQ ID NO: 203) (nucleic acid, sugars from the 5' end m3 r94 m3, linkages s3 o93 s3 (s phosphorothioate, o phosphodiester), T or U not given here) guide: CUUGGCAGUUGAGCACGCGCGUUUUAGAGCUAGAAAUAGCAAGUUAAAAUAAGGCUAGUCCGUUAUCAACUUGAAAAAGUGGCACCGAGUCGGUGCUUUU | 0.02% | 8.76% | 33.23% | 3.59% | 13.96% | 40.78% |
| GA206: PCSK9 gRNA; protospacer CCGGTGGTCACTCTGTATGC (SEQ ID NO: 200) (nucleic acid, sugars from the 5' end m3 r94 m3, linkages s3 o93 s3 (s phosphorothioate, o phosphodiester), T or U not given here) guide: CCGGUGGUCACUCUGUAUGCGUUUUAGAGCUAGAAAUAGCAAGUUAAAAUAAGGCUAGUCCGUUAUCAACUUGAAAAAGUGGCACCGAGUCGGUGCUUUU | 0.85% | 2.7% | 20.73% | 0.84% | 2.73% | 16.9% |
| GA205: PCSK9 gRNA; protospacer CCCTGCCCTCGATTTCCCGG (SEQ ID NO: 199) (nucleic acid, sugars from the 5' end m3 r94 m3, linkages s3 o93 s3 (s phosphorothioate, o phosphodiester), T or U not given here) guide: CCCUGCCCUCGAUUUCCCGGGUUUUAGAGCUAGAAAUAGCAAGUUAAAAUAAGGCUAGUCCGUUAUCAACUUGAAAAAGUGGCACCGAGUCGGUGCUUUU | 3.74% | 12.42% | 38.04% | 3.01% | 12.04% | 36.43% |
| GA204: PCSK9 gRNA; protospacer CACTCTGTATGCTGGTGTCT (SEQ ID NO: 198) (nucleic acid, sugars from the 5' end m3 r94 m3, linkages s3 o93 s3 (s phosphorothioate, o phosphodiester), T or U not given here) guide: CACUCUGUAUGCUGGUGUCUGUUUUAGAGCUAGAAAUAGCAAGUUAAAAUAAGGCUAGUCCGUUAUCAACUUGAAAAAGUGGCACCGAGUCGGUGCUUUU | 1.27% | 8.98% | 24.98% | 0.91% | 5.27% | 19.37% |
| GA211: PCSK9 gRNA; protospacer TGCGCGTGCTCAACTGCCAA (SEQ ID NO: 205) (nucleic acid, sugars from the 5' end m3 r94 m3, linkages s3 o93 s3 (s phosphorothioate, o phosphodiester), T or U not given here) guide: UGCGCGUGCUCAACUGCCAAGUUUUAGAGCUAGAAAUAGCAAGUUAAAAUAAGGCUAGUCCGUUAUCAACUUGAAAAAGUGGCACCGAGUCGGUGCUUUU | 1.31% | 10.29% | 38.07% | 1.01% | 8.3% | 28.63% |
| GA158: PCSK9 gRNA; protospacer GCTAGCCTTGCGTTCCGAGG (SEQ ID NO: 152) (nucleic acid) guide: mG*mC*mU*rArGrCrCrUrUrGrCrGrUrUrCrCrGrArGrGrGrUrUrUrUrArGrArGrCrUrArGrArArArUrArGrCrArArGrUrUrArArArArUrArArGrGrCrUrArGrUrCrCrGrUrUrArUrCrArArCrUrUrGrArArArArArGrUrGrGrCrArCrCrGrArGrUrCrGrGrUrGrCrU*mU*mU*mU | 2% | 6.55% | 37.94% | 1.04% | 4.42% | 18.27% |
| GA208: PCSK9 gRNA; protospacer CCAGCATACAGAGTGACCAC (SEQ ID NO: 202) (nucleic acid, sugars from the 5' end m3 r94 m3, linkages s3 o93 s3 (s phosphorothioate, o phosphodiester), T or U not given here) guide: CCAGCAUACAGAGUGACCACGUUUUAGAGCUAGAAAUAGCAAGUUAAAAUAAGGCUAGUCCGUUAUCAACUUGAAAAAGUGGCACCGAGUCGGUGCUUUU | 1.38% | 5.72% | 25.76% | 1.15% | 6.01% | 25.07% |
